# Assay: soluble on expression in E. coli; label from the status in PepcDB or PDB records
row,Sequence,soluble on expression in E. coli
1,MGSDKIHHHHHHMNEAQQERRRSVRRDLHSYPEPAWREFYTTSRIAEEIERIGVDQLYIGRNVVDGDARMAVPDDDELEDWQRKARDAGAREDVLEAAAGGFTGALAVLEQGEGPTVALRVDIDALPITESDSVAHAPATEEFRSTNEGYMHACGHDAHATIGLGVLEAVKESDFKGTFKVVFQPAEEVIGGGKAVAESGHLDDVDHLLAIHIGLDHPTGEIVAGVGGFLAVRQFEATFTGETAHAGGHPAQGRDAVQALATAVQNLHAIRRHGDGATRVNAGVVEGGTATNIVPGEATLEGEVRGETTPLKEYMSERADTVMSSAAEMHDCEVAIETTAEAPSAVSDDALAGVVYDAADSVPGVTSRLRTDDLGGSEDATYLMDRVQNHGGTATFVGIGTDHPGGHHTPLFDIDEDSLTIGIDVVTEAISQLSG,not soluble
2,MRHSFFCIDSHTCGNPVRLVAGGGPLLPHLPISERRDLFVRNHDWVRQALMFEPRGHDIMSGAVIYPAYRDDCDFAVIFIEVSGCLPMCGAGTIGLVTAAIEEGLVTPRIPGRLSIETPAGKVDIQYDKPGEFVESVRIFNVASYLHAADVEVNVPGLGKLVVDIAYGGNYYAVIEPQVGWPGLDGMTAGDVVDLSQKLRDALGTICDPVHPDDERIRGVHHAIWCDRPVSAEADGRGAVFYGDKAIDRSPGGTGTSARMAQLHGKGRLKAGETFRQESLIGTIFEGKVEEETTVGSFSGIRPSIGGWARIIGHNTIFVDDRDPLAHGFQVRLEHHHHHH,not soluble
3,MAHHHHHHMDEGLPIDASEAQLEAIRREVAQYPLLSLSLPLNKESMIVKEMEHDDAYLAQTLSLFGASPVSTKQYDFGSIRYSRRDGNCFYRCAGFRLCELIVEHPERAAEYVALLKSREESLSRLFGLFVFDFTDALAEILKGVADKTITSVAQVYNRFISDDAAYVLAALRYLISAYLQEHEEEYEPFVSGLGYGAVRDYCNAEVELVDHESDNVQLAAFAKAFNVCIKVYALDRNAGNNITEYSFNGEDNDAGDRLVVGLLYMPGHYNLLGRGPG,not soluble
4,SRMMVIKNNSEETKSREYIVIGQVFFASSDKFIASFDFKEVIECVTIDLSAAHFWDITSASALDKVVVKFRREGTQVELIGMNQATKTIVDKFGVHDKPEEVEKLLAG,not soluble
5,ISEFGSCPPGQFRCSEPPGAHGECYPQDWLCDGHPDCDDGRDEWGCG,soluble
6,MRSGKIFHHFDQWGIIIRKDMLKQLALFIALFGAVTAWNRQNHFGNPCYLCSCFTVYTDRDVAVPLRPYAMAIDGYDTTEDRCLATCQRDQRCRAAVYGMVGGRSVFTCEFYEKFNTKSVPVYTTYVNMYMKRSSECKLPIAHLSSIEMIPADNSSLKRRAKLEKLIGRKNPFLG,not soluble
7,MKKYSILLLPFILASCAPVSESQFTEQRLSELEIKVAKLEERQEKIEEQLEEINKRLDYITKSIAKREIKSYKEPEEEKPPFEEVKSTEDEKAEYENALELYKMKQLNEARDAFVEFIKKYPNSKYTDNAYFWLGKTFYELGNTERAKQIFNVLIKKCKSGELPDCNKLPDTYFMLVKISLDEGNIEEANRYLSILEEKFPDAEATQRAKELIYKTP,not soluble
8,MSKIAIIVDSSSYIPKDQLKKHHIYVIDNPIIFGETIYHEFNWPVNADFYQQMATTPIQPTTSQPAPGDFEAAFQAAKDDGYKQALVITLSSGFSGTFLNTSAIASSHSDIDIHVWDSRIACLGAGNQALLAAYLAEKGIGIDEILSKLQILRSRTGVFFVVDSISHLQRTGRLSGGQALVAGLLNIKPILNINTNKQGKIDAVAKTRKMSGAWRYIEKHFAKIADNYQRAGWPMRVSILDADNPELADAWLKRAEKRWPEIIFERGIIGPLVGVHIGGKAVGLIWAEDYKRLED,not soluble
9,MGSDKIHHHHHHMKPALKSTPALRITLVCNTAWAIYTYRQGLIRMLVGRGVDVTVLAPRDRTFELLVAMGCRCIELPVASKGTSPRDDLRTLYALYRQYRSIRPHVVFHYTIKPNIYGSIAARLAGVQSVAVTTGLGYVFIQQSRAAQVAKKLYRFAFRFPREIWFLNRDDQAAFVEQNLLVHPERARLLHGEGVDLEQFAFTPLPERADYRFVLIGRLLWDKGVGEYVEAARRLRERYPHARFQLLGPVGVDNPSAITREEVAAWEREGIIEYLGEAHDVRPFIAEADCVVLPSYREGVPRTLMEASAMGRPIVTTDVPGCREVVADGVNGLLCEARNAASLAATLARMLDMSGAERRALAERGRKKVAEEFDERVVVEMYKDLVQKMTGVLL,not soluble
10,MGSDKIHHHHHHMIIDRLFDSVEKKGHVCLGLDTDITYVPEEFCKKFNSIEDAIFNFNKKIIDATLDVVSCYKVQIAYYEAYGLKGLLAYKRTLEYLREKKAIAIADIKRGDIAKTAEMYAKAHFEGDFEADFVTLNPYMGLDGIEPYMPYIEKMEKGLFILLRTSNKGAYDIQYIKTQGGKNVYDEVGEKIYDLGQKATGRSKYSSIGAVVGCTHVEEGVEIRNKFKNMFFLIPGYGAQGGTAKEVSLYLREGNGGVVNSSRGILLAYKKEENGEKIFDECARLAAINMRDEIRKTL,not soluble
11,MNTAAGRKEDIRIPPRVAPDLNAPRVLVLNASYEPLQVTSIKRAITLLQYGVAEVLEQSRDVVRSPSTVMSVPSVIRLRRYVRRPRVGAVPFNRRNVLRRDHFTCQYCGSQDDLTMDHVHPRSRGGKHGWDNVVTACRTCNQRKGNLTPEEAGMPLHVPPHAPTFGVYAHGQFAHWQPEWSGYIRGLEHHHHHH,not soluble
12,MSEIKTDDPKRGIKLRGADKTARIPIKVVPLQEKLKKPEWIRAKLPSRKFFEIKDILREQKMHTVCEEASCPNIGECFSKGTATFMIMGDICTRRCPFCDVGHGRPNMLDPDEPRNLAESVKAMNLRYVVITSVDRDDLRDGGAQHFADCIKAIRETSPNTKIEILVPDFRGRLDIALKILAETPPDVMNHNLETHPSLYRKARPGANYQHSLDLLKRYKEMMPHIPTKSGIMVGLGETDEDVREIMRDMRAHNIEMITIGQYLQPSDGHLPVLRYVTPEQFKIFEKEAYELGFSNAAIGAMVRSSYHADEQAAEALRESHGGCGHH,not soluble
13,MKWYTKYLQVYEKPFSEAPQEIVEEVRNKLKLLQSDNPLVTVSLIGYNEEKHLLASLWSLSEMKCKYPIEIIGTDNDSKDQTATIYEATGIPYVIEHQHSCGHARLCGLKRAKGKYHINIDSDTMYPPHYVETMVDALERPGIVAVSSLWSYIPDKEHSWVGLKIYEFIRDIHLWIQSIKRPELSVRGLVFAYRTDYARQVGIRTDIRRGEDGSLALRLKEYGNIYFIRKRKARAITGYGTISADGSLFNSFKVRAIYALKNIGRVFTRKKEYKDEDDNLIKS,not soluble
14,MAHHHHHHMGTLEAQTQGPGSMGSLSTSISSITTNTTNLGNSTAAALGGGATYDPATGAISAPSYTTYNANGTTATNTSVGAAIDNINANGIKYFHANSTDPDSVATGTNSVAIGPNAVANVDYSVAIGSGATTSAAVPVASASVGGLTFGGFAGSAPIGVFSVGAPGAERQITNVAAGRISAASTDAVNGSQLYATNSN,soluble
15,MKQAIGFIDSGVGGLTVVREVLKQLPHEQVYYLGDTARCPYGPRDKEEVAKFTWEMTNFLVDRGIKMLVIACNTATAAALYDIREKLDIPVIGVIQPGSRAALKATRNNKIGVLGTLGTVESMAYPTALKGLNRRVEVDSLACPKFVSVVESGEYKSAIAKKVVAESLLPLKSTKIDTVILGCTHYPLLKPIIENFMGDGVAVINSGEETASEVSALLDYHNLLDATDEEIEHRFFTTGSTQIFKDIAKDWLNMPDMTVEHIKLGK,not soluble
16,MSLDLNDTYSGKREPFSGDHSADGFEVTSRSEMSSGSEISPVSEMPSSSEPSSGADYDYSEEYDNEPQIPGYIVDDSVRVEQVVKPPQNKTESENTSDKPKRKKKGGKNGKNRRNRKKKNPCNAEFQNFCIHGECKYIEHLEAVTCKCQQEYFGERCGEKSMKTHSMIDSSEGHHHHHH,soluble

# Source: the DeepSol protein solubility set
